# Laboratory results reported in US20060160146.
# Experiments:
# [1] = system: SEAP-APPsw fusion protein (secretory alkaline phosphatase fused to APP 581-695 with glutamic acid at position 17 of β-amyloid and Swedish mutations)
# [2] = system: SEAP-APPwt fusion protein (secretory alkaline phosphatase fused to APP 581-695, no Swedish mutations)
# [3] = system: BE11-hAPP695 with alanine at position 17 of β-amyloid
# [4] = system: BE11-hAPP695 with glutamic acid at position 17 of β-amyloid
# [5] = system: BE11-hAPP695 with lysine at position 17 of β-amyloid
# BE11-hAPP695 with lysine at position 17 of β-amyloid, sequence (chain, as listed by the source): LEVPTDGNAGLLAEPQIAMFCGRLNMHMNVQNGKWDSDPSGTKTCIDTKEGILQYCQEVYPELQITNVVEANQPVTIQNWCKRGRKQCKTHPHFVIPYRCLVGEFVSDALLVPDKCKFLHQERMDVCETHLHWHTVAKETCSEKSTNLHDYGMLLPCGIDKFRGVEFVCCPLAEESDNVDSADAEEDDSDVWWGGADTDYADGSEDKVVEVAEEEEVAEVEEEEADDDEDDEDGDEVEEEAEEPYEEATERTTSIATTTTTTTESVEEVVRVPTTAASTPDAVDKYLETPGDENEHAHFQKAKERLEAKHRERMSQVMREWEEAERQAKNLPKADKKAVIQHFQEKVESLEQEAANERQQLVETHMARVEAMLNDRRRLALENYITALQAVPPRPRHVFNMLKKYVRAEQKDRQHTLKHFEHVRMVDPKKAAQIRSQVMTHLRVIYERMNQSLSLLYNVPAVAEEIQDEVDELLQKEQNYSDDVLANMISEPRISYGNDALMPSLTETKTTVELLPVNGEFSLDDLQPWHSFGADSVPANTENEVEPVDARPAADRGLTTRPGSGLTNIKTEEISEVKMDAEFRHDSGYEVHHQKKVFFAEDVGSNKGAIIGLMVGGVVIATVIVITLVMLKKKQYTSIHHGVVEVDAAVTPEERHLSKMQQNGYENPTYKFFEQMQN
# [6] = system: BE11-hAPP695 with proline at position 17 of β-amyloid
# BE11-hAPP695 with proline at position 17 of β-amyloid, sequence (chain, as listed by the source): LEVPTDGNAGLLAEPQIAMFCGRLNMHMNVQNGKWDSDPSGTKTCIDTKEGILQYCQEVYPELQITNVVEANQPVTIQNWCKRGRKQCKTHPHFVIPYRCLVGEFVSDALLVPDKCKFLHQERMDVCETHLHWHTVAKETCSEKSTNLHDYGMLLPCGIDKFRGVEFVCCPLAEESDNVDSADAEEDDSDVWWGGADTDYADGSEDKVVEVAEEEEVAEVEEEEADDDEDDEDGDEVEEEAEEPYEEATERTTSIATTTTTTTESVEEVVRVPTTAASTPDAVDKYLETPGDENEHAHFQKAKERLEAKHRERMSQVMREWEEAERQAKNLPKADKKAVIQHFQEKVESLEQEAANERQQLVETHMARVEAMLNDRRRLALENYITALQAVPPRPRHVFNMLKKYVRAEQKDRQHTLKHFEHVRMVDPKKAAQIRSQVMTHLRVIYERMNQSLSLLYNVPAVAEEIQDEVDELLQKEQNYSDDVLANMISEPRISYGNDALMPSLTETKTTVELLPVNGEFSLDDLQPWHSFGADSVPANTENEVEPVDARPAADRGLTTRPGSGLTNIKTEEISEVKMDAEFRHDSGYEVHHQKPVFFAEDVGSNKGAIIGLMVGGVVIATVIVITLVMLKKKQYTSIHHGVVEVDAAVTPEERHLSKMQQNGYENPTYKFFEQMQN
# [7] = system: BE11-hAPP695 with tryptophan at position 16 of β-amyloid
# BE11-hAPP695 with tryptophan at position 16 of β-amyloid, sequence (chain, as listed by the source): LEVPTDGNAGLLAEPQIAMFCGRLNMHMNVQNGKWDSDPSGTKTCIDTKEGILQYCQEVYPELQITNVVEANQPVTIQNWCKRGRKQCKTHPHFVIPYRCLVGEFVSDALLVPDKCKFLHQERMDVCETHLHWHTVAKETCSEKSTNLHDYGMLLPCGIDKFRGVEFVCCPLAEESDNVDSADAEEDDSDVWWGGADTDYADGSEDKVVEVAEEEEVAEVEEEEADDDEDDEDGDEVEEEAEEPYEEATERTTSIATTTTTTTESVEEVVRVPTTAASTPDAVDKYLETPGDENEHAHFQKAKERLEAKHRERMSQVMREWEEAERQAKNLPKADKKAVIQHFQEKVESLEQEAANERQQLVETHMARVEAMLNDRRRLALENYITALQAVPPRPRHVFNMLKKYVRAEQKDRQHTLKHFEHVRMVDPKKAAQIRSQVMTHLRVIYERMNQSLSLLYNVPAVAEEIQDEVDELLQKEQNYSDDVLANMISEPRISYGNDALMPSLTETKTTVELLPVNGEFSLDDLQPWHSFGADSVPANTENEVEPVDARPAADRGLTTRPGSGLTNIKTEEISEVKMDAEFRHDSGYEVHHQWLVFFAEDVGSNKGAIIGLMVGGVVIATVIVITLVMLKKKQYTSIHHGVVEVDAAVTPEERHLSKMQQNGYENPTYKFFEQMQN
# BE11-hAPP695 with alanine at position 17 of β-amyloid, sequence (chain, as listed by the source): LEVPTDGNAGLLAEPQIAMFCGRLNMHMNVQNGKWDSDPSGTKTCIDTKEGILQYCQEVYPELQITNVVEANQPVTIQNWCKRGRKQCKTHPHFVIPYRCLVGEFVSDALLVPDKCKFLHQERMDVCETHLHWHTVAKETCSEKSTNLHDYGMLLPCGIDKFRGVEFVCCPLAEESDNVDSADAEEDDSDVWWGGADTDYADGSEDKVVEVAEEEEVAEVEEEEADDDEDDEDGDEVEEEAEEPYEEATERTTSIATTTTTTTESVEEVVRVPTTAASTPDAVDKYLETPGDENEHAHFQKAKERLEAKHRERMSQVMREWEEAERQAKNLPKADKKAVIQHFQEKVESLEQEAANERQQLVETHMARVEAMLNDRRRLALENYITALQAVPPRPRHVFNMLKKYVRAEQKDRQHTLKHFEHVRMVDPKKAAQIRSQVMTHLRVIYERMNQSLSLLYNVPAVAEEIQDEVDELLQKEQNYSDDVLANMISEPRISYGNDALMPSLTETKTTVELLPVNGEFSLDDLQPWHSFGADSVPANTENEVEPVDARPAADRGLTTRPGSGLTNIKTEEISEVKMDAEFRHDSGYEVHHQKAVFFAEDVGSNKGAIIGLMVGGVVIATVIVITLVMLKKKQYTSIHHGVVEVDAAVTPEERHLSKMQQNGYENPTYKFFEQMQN
# BE11-hAPP695 with glutamic acid at position 17 of β-amyloid, sequence (chain, as listed by the source): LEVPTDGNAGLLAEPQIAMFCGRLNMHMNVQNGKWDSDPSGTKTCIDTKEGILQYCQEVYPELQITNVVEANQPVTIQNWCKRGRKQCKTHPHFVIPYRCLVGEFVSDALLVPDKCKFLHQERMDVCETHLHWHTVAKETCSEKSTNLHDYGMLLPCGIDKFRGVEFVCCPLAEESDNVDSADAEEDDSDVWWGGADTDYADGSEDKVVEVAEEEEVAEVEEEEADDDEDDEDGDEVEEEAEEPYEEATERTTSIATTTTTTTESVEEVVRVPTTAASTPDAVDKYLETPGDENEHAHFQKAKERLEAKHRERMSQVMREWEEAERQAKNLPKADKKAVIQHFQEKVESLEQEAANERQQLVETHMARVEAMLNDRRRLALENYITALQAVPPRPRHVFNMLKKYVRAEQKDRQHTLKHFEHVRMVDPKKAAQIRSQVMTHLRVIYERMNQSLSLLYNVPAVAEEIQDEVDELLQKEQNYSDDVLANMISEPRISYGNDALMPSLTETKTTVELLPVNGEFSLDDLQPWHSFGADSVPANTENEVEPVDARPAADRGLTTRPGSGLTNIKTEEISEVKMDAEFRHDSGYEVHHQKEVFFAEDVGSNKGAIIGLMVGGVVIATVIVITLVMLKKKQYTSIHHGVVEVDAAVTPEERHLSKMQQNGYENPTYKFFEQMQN
substance,measurement,setting,value
α-secretase (endogenous activity of the CHO-K1 cells of Example 2),"α-cleavage product in culture supernatant, Western blotting",[1],no α-cleavage product was detected in any culture supernatant
same,"α-cleavage product in culture supernatant, Western blotting",[2],no α-cleavage product was detected in any culture supernatant
β-secretase (endogenous activity of the CHO-K1 cells of Example 2),β-amyloid production,[1],produced 5 to 10 times as much β-amyloid
same,"β-secretase cleavage product in culture supernatant, Western blotting",[1],a β-secretase cleavage product was detected only in the fusion protein expression cell line (S)
same,"β-secretase cleavage product in culture supernatant, Western blotting",[2],a β-secretase cleavage product was detected only in the fusion protein expression cell line (S)
α-secretase (endogenous activity of the COS7 cells of Example 1),"α-cleavage: amount of α-secretase cleavage product (sAPPα) in culture supernatant, Western blotting",[3],↓
same,"α-cleavage: amount of α-secretase cleavage product (sAPPα) in culture supernatant, Western blotting",[4],0
same,"α-cleavage: amount of α-secretase cleavage product (sAPPα) in culture supernatant, Western blotting",[5],↓↓
same,"α-cleavage: amount of α-secretase cleavage product (sAPPα) in culture supernatant, Western blotting",[6],0
same,"α-cleavage: amount of α-secretase cleavage product (sAPPα) in culture supernatant, Western blotting",[7],↓↓
β-secretase (endogenous activity of the COS7 cells of Example 1),"β-cleavage: amount of β-secretase cleavage product (sAPPβ) in culture supernatant, Western blotting",[3],→
same,"β-cleavage: amount of β-secretase cleavage product (sAPPβ) in culture supernatant, Western blotting",[4],→
same,"β-cleavage: amount of β-secretase cleavage product (sAPPβ) in culture supernatant, Western blotting",[5],↑
same,"β-cleavage: amount of β-secretase cleavage product (sAPPβ) in culture supernatant, Western blotting",[6],→
same,"β-cleavage: amount of β-secretase cleavage product (sAPPβ) in culture supernatant, Western blotting",[7],→
